In assay [1] the target is β-amyloid (1-40). Kind of assay: sandwich EIA, solid phase BAN-50a, label BA-27a-HRP (1000-fold dilution).
In assay [2] the target is β-amyloid (1-40). Kind of assay: sandwich EIA, solid phase BAN-052a, label BA-27a-HRP.
In assay [3] the target is β-amyloid (1-40). Kind of assay: competitive EIA with β-Gal-labeled βA(1-40); unlabeled peptide varied.
For assay [4], the target named is β-amyloid (1-42). Kind of assay: sandwich EIA, solid phase BAN-50a, label BA-27a-HRP.
The target of assay [5] is β-amyloid (1-38). The assay is described as above.
For assay [6], the target named is β-amyloid (1-39). The assay is described as above.
Assay [7] addresses β-amyloid (1-42). Kind of assay: sandwich EIA, solid phase BAN-50a, label BA-27a-HRP; against β-amyloid (1-40).
Assay [8] has as its target β-amyloid (1-38). Described as above.
For assay [9], the target named is β-amyloid (1-39). The description is as above.
For assay [10], the target named is β-amyloid (1-40). Kind of assay: sandwich EIA, solid phase BA-27a, label BAN-052a-HRP.
The target in assay [11] is β-amyloid (1-40). In words: sandwich EIA, solid phase BAN-50a, label BA-27a-HRP (1500-fold dilution).

Detection sensitivity, IC50 and cross reactivity data for 1 substance are collected here from patent US5750349.

The term IC50 denotes the concentration that inhibits the measured activity by half. Low values mean inhibition by little substance, high ones a need for much substance.

Turning to BA-27a (antibody), the detection sensitivity in the assay with β-amyloid (1-40) [1] is 0.2 pg/well; in the assay with β-amyloid (1-40) [2], 0.6 pg/well; with β-amyloid (1-42) [4] it was 18 pg/well; with β-amyloid (1-38) [5] it was 85 pg/well; with β-amyloid (1-39) [6], 17 pg/well; in the assay with β-amyloid (1-40) [10] it was 10 pg/well. Further, the detection sensitivity with β-amyloid (1-40) [11] turned out to be 0.2 pg/well. For the same substance, the IC50 in the assay with β-amyloid (1-40) [3] came out at 200 nM. Besides, the cross reactivity with β-amyloid (1-42) [7], in the assay with β-amyloid (1-38) [8] and with β-amyloid (1-39) [9] was less than 2% each time.
